Measured values taken from the supplement of paper PMC9170038.

System: MS2 coat protein
Test: apparent KD of MS2 coat protein; higher = weaker reporter binding
Settings: Eterna round: R107
Method in brief: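 Binding of SNAP-549-labelled MS2 coat protein was measured on designed RNA switches transcribed on-chip from Illumina sequencing clusters. The protein rose in twofold steps from 0.7 or 1.5 nM to 3 µM, with 0.8–1.5 h per step early on and 10–20 min per step later, in 100 mM Tris-HCl pH 7.5, 80 mM KCl, 4 mM MgCl2, without or with constant ligand. Each design's apparent KD is the median of fits to its normalised cluster binding curves.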

[1] = input ligand: theophylline 20 uM
[2] = input ligand: theophylline 2 mM
[3] = input ligand: tryptophan 2.4 mM

Sequence | apparent KD of MS2 coat protein (input ligand: arginine 13.2 mM) [nM] | apparent KD of MS2 coat protein [1] [nM] | apparent KD of MS2 coat protein [2] [nM] | apparent KD of MS2 coat protein (input ligand: none) [nM] | apparent KD of MS2 coat protein [3] [nM]
GCGACCCUGAGAUCCUACGUAACGUGAACACGAGGACCGGUACGGCCGCCACUCGAGAGAACAUGAGGAUCACCCAUGUCUGAGC [e-trypA-0] | 17.3 | 37.2 | 30.8 | – | –
GCGCGGCGAGUGCGGCGUGUUCCGCUCCGUCGAGGACCGGUACGGCCGCCACUCGACAUGAGGAUCACCCAUGUCGCCGCGCGUC [Exclusion - Tryptophan A Attempt #1] | 12.6 | 48.6 | 19.2 | – | –
GCGUACGAUCGGGAUACCAGACAUUGCCGUUAGGGUGAACCUGAGGAACACCCAGGUUUUGUCCCUUGGCAGCCCGAUCGUACGC [ETB NP+V+V2 #8 Diff Apt, Same Structure] | 20.6 | 65.8 | 136 | 19.6 | 27.5
GCUAGGUCUACGGCCGCCACUAGACGUGGGUAAGACAUGAGGAUCACCCAUGUACUACGGGCGAAUAGGACCGGGUAGACCUAGC [SSTB NP+V+V2 #14 Same Structure] | 173 | 499 | 668 | 321 | 39.1
GCUAGGUCUACGGCCGCCACUAGACGUGGGUAAGACAUGAGGAUCACCCAUGUACUACGGGCGAUUAGGACCGGGUAGACCUAGC [SSTB NP+V+V2 #16 Same Structure] | 50.5 | 527 | 646 | 309 | 66.9
GCUGCAGCUACGGCCGCCACUGUUACGUGAGACAUGAGGAUCACCCAUGUUGAUGUUUUACGGUAUAGGACCGGGUAGUUGUAGU [E 1.0] | 9.08 | 11.8 | 10.3 | – | –
GCUGCUUUGGGAAGGAGCGCUGUGGUAGUGUGGCGGACAUGAGGAUCACCCAUGUGCCUGCAGCAGGUAGGUCGCUUAGGGCAGC [EAP NP+V+V2 #16] | 37.6 | 37.9 | 40.1 | 24.5 | 36.5
GCUGUUGCGGUGAGGUAUCCGGCUGUGGAAGGAGCGCGGAAUGCCGCAGGUAGGUCGCCACAUGAGGAUCACCCAUGUCGAUAUA [Atzalama] | 25.6 | 45.2 | 35 | 27.2 | 21.2
GGACCAUGGCGCGAUACCAGCUUGAGUGUACUGGCCAGGUACAUGAGGAUCACCCAUGUAAGCCCUUGGCAGCGCGCCAUGGUCC [#1 Exclusion - Theophylline B Attempt #24 (HarryS)] | 10.4 | 16.1 | 36.5 | 10.3 | 10.7
GGACUAACUGGAAGGAGCGACGCGCAGAAACUGCAAUUUCCUCCACACGAGGAUCACCCGUGUCAGGUAGGUCGCCAGUUAGUCG [ArgBX 29] | 19.1 | 24.7 | 21.1 | 16.7 | 18.6
GGAUAGGACACGGCCGCCACUACCUAGGAUACUAGCAACAUUUGGGUAUAUGAGGAUCACCCAUAUAGGACCGGGUGUCCUAUCG | 48.5 | 88 | 95.2 | 75.8 | 102
GGAUAUGGUGAAAGAGAGAAGAGAGAUGAUACCAGUAAGAGAAGAUGCCCUUGGCAGCAUAGAGACAUGAGGAUCACCCAUGUAA [solution] | 12 | 25.2 | 24.3 | 22.9 | 15.6
GGCACAUAGUCGGCCGCCACUAGAAUAAGAAGGGAAAACAUGAGGAUCACCCAUGUAAAAGGGACUAGGACCGGGACUAUGUGCC [Shrew] | 14.5 | 18.2 | 17 | – | –
GGCACCGGGCGAAGGAGCGUGAAGACAUGAGGAUCACCCAUGUAGAGGCCCGGACAGGGUUCGCAGGUAGGUCGCGCGCGGUGCC [#1 Same State - Arginine B Attempt #8 (HarryS)] | 21.2 | 22.3 | 16.8 | 14.5 | 16.9
GGCAGUCAUAGGAGGGCAAAUAUACUCGAAGGAGCGUCAUAGUAGGCAGGUAGGUCGCGAGACAUGAGGAUCACCCAUGUAGAGA [wwzmullin] | 20.2 | 106 | 125 | 66.9 | 90.5
GGCCCGGACUUGGAAUGGGUGUUUCCCUCACGAGGACCGGUACGGCCGCCACUCGAAGACAUGAGGAUCACCCAUGUAGUCGACA [Qudirate] | 31.2 | 78 | 138 | – | –
GGCCCGGACUUGGAAUGGGUGUUUCCUUCACGAGGACCGGUACGGCCGCCACUCGAAGACAUGAGGAUCACCCAUGUAGUCGACC [Soleti] | 20.3 | 100 | 41.1 | 21.7 | 18.2
GGGACAUGAGGAUCACCCAUGUACCGGUCCCGAGGACCGGUACGGCCGCCACUCGAUGACCUCAUAGUCUGCUGGAGCAGCAGAC [Usesedarin] | – | 108 | 84.3 | 54.6 | 330
GGGCAAGAGGGAAGGAGCGUCGGCUGGGUAACAUGAGGAUCACCCAUGUAGCACAUGGUGUGGCAGGUAGGUCGCCCUCUGCCCU [SS-ArgB9] | 71.1 | 153 | 133 | 102 | 103
GGGCCCGGGCGCGAGCCCGGGCCCAUUGAUACCAGUGAAAAUAUACGCCCUUGGCAGCGAAUCCUAACAUGAGGAUCACCCAUGU [5.A] | 37.7 | 65.7 | 70.9 | 37.2 | 33.4

Sequence | apparent KD of MS2 coat protein (input ligand: arginine 13.2 mM) [nM] | apparent KD of MS2 coat protein [1] [nM] | apparent KD of MS2 coat protein [2] [nM] | apparent KD of MS2 coat protein (input ligand: none) [nM] | apparent KD of MS2 coat protein [3] [nM]
GGGCCCGGGCGCGAGCCCGGGCCCAUUGAUACCAGUGAGAGAGAGCGCCCUUGGCAGCGAAUCCUAACAUGAGGAUCACCCAUGU [5.N] | 49.5 | 84.6 | 84.3 | 51.6 | 41.6
GGGCCCGGGCGCGAGCCCGGGCCCAUUGAUACCAGUGAUAUAUAGCGCCCUUGGCAGCGAAUCCUAACAUGAGGAUCACCCAUGU [5.I] | 23.7 | 65.2 | 53.2 | 38.8 | 42.7
GGGCCUACCUGAAGGAGCGACAUGAGGAUCACCCAUGUCUCCCGUUAUGGGAGUUCUUUAGGUCAGGUAGGUCGCAGGUAGGGCC [#1 Exclusion - Arginine B Attempt #4 (Inspired by Omei)] | 15.3 | 17 | 14.1 | 12.6 | 14.1
GGGCGACAUGAGGAUCACCCAUGUGUCGAUACCAGUAUGAAUUUCUACCCUUGGCAGCGACGACACGGUUAUUUGUGCACUUCGA [theeternabot_sameState_MS2_Theo_A_5] | 77.5 | 114 | – | – | 95.6
GGGCGCUAUCCCGCGAGGGAUAGCGUUCGACGAGGACCGGUACGGCCGCCACUCGAACGAGUGGUGACAUGAGGAUCACCCAUGU [Naa] | 28.7 | 56.7 | 59.4 | 53 | 49.7
GGGCGCUAUCCCGCGAGGGAUAGCGUUCUUCGAGGACCGGUACGGCCGCCACUCGAACGAGUGGUGACAUGAGGAUCACCCAUGU [Paa] | 35.6 | 75 | 81.1 | 63.6 | 58.7
GGGCUGUGACCAGGAAAUGGUCACAGCCCACGAGGACCGGUACGGCCGCCACUCGAAAGUACAUGAGGAUCACCCAUGUCGGUGG [#1 Same State - Tryptophan A Attempt #8 (HarryS)] | 25.9 | 30.6 | 37.9 | 34.1 | 50.9
GGGUACAUCGCGGCCGCCACUCGUGUAAAUACAUGAGGAUCACCCAUGUCGAUGGAGACAUCGGAGAGGACCGGGUGAUGUACCG | 110 | 114 | 81.5 | 81 | 46.7
GGUAUGUAUUCGGAAACGAAUGCAUACCAUCGAGGACCGGUACGGCCGCCACUCGUGGCUGAUCAACAUGAGGAUCACCCAUGUA [Ex Tryptophan A 1] | 36.1 | 94.3 | 83.4 | 85.9 | 50.4
GGUCGCCUACAUGGGUAGGCGAUUUUGGAAGGAGCGAGCGAGAGCUCAGGUAGGUCGCCAGCACAUGAGGAUCACCCAUGUUUUU [SSArg-A #25 Weakened 1st state] | 20.8 | 20.9 | 21.8 | 16.1 | 18.7
GGUGGCGGGACUGAUACCAGCCACCACCGAUAGACCACAUGAGGAUCACCCAUGUUGGGUGGCCCUUGGCAGCAGUCUUGCGGCU [#1 Same State - Theophylline B Attempt #14 (HarryS)] | 46.8 | 523 | 163 | 797 | 739
GGUGGCGGGACUGAUACCAGCCACCACCGAUAGACCACAUGAGGAUCACCCAUGUUGGGUGGCCCUUGGCAGCAGUCUUGCGUCG [#1 Same State - Theophylline B Attempt #16 (HarryS)] | 35.9 | 92.9 | 21 | 149 | 323
GGUGGCGUGACGGAUACCAGCCACCACCGCAAGGCCACAUGAGGAUCACCCAUGUUGGGUGGCCCUUGGCAGCUGUCGUGCGGCG [#1 Same State - Theophylline B Attempt #20 (HarryS)] | 451 | 324 | 431 | 263 | 341
GGUGGCGUGACGGAUACCAGCCACCGCCGCAAGGCCACAUGAGGAUCACCCAUGUUGGGUGGCCCUUGGCAGCUGUCGUGCGGCG [#1 Same State - Theophylline B Attempt #21 (HarryS)] | 121 | 464 | – | – | 378
GGUUACUCUACGGCCGCCACUGUAAUGUAAAGAUACCUGUACAUGACAUGAGGAUCACCCAUGUGCAGGACCGGGUAGUGUAACC [Tryptophan B 19] | 50.6 | 93.6 | 70 | 61.6 | 19.8
GUACAUGAGGAUCACCCAUGUAUAGUUGAAGGAGCGACCGGUGGGUCAGGUAGGUCGCAGCGCAUGGCGUCCACGCGUGUAUGCC [#1 Exclusion - Arginine A Attempt #29 (Inspired by Pi)] | 10.3 | 17.1 | 11.1 | 12.3 | 11.9
GUACCGUAAACGGCCGCCACUGACAUGAGGAUCACCCAUGUGCUGGUGGUGCACAACCUCAGGUUCAGGACCGGGUUUCCGAGCU [theeternabot_exclusion_MS2_Trp_B_50] | 23 | 45.3 | 32.2 | – | –
GUAGCUAUCGCGGCCGCCACUAAACCGGAAACGGAACAGUAGGAUCACCAUUGUGGCGAAAGCCAUAGGACCGGGCGAUAGCUAC [TryBS - Double Magnet system 2] | 601 | 830 | 1210 | 502 | 80
GUAUGGAAACAUACUUGGGUAUCAUGAGAUACCAGUACAGAAAUGUACCCUUGGCAGCUCAAGCAUACAUGAGGAUCACCCAUGU [Ex Theophylline A 8] | 22.5 | 22.5 | – | – | 15.4
